In test [1] the target is human TANGO1 (21-131) cargo-recognition (MOTH) domain (human) (UniProt Q5JRA6). Nature of the test: NMR titration.
Test [2] deals with T1, MOTH domain of human Otoraplin (18-128) (human, UniProt Q9NRC9 18-128, [U-15N]-enriched).
T1 sequence (looked up): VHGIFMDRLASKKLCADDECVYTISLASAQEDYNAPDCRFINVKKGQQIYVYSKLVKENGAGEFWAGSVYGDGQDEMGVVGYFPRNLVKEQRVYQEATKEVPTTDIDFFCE
Nature of the test: NMR titration.

Turning to FHNYNVEELLGFLELYNSAA [synthetic peptide of residues 132 to 151 of human TANGO1], in test [1], the Kd is 321 µM and the koff worked out at 1100 s⁻¹.

In test [2], VPPPVPPRRR (peptide, UniProt Q07889 1149-1158, looked up) [class II PPII helix peptide SOS1 (1149-1158)] had a dissociation constant Kd of 1300 µM and an off-rate constant (koff) of 350000 s⁻¹.

Usually Kd stands for the free concentration of one partner at which half of the binding sites on the other are occupied at equilibrium, for simple one-to-one binding. Read a high Kd as a looser complex. In general, koff refers to the rate constant with which the complex falls apart.

(Values after doi:10.1101/2022.02.02.478833 (bioRxiv, 2022).)
